This is an account of results in WO2007088823A1 (dated 2007).

The assay deals with T1, Recombinant Human TNF-α (Strathmann Biotec AG, hTNFa-1000, Lot 090590) (human, UniProt P01375 77-233).
T1 construct: Bought protein; runs at 17.0 kDa on SDS-PAGE; also called cachectin
Put plainly: ELISA, hybridoma culture supernatant on coated proteins (cross-reactivity test). (In general: ELISA stands for enzyme-linked immunosorbent assay.)

T1 sequence (P01375 77-233 limits assumed): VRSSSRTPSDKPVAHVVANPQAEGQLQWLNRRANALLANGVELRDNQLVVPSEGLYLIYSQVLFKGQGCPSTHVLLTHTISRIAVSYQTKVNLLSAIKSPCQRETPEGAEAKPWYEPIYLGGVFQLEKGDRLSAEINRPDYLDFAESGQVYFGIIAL

B1: ETNF-6 antibody (antibody, V domains shown)
VH: EVQLQQSGPELVKPGASVKISCKASGYSFTAFYMHWVKQSHVKSLEWIGRINPYNGATSYNQNFKAKASLTVDKSSSTAYMELHSLTSEDSAVYYCARSEDWDKTMDYWGQGTSVTVS
VL: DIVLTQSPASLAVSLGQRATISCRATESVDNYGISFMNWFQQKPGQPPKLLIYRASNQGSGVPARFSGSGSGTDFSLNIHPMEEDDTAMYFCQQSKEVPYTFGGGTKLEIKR
notes: Mouse monoclonal antibody, tested as hybridoma culture supernatant; also called ETNF 6 monoclonal antibody
For the molecule B1, the binding result was “binds”.
